Where “and” joins values, the source holds several entries; their conditions need not be identical. Equal entries are not always repeated. Where two headings read alike, the source gives them in different places.
Tests used:
[1] = test system: reporter viruses pseudotyped with HIV-1SF162 envelope (U87-CD4-CCR5 cells); assay: HIV-1 pseudovirus assay, SF162 envelope; type: cell-based
Description: A self-inactivating (SIN) vector was derived from the pNL4-3ΔEnv-luciferase vector (Dragic et al. 1996) by deleting 507 basepairs in the U3 region of the 3′ long terminal repeat (LTR) so as to remove the TATA box and transcription factor binding sites. The human cytomegalovirus promoter was inserted upstream of the luciferase (luc) gene to enable expression of luciferase following integration.
Reporter viruses pseudotyped with HIV-1JR-FL or HIV-1SF162 envelopes were generated by cotransfection of 293T cells with the SIN vector and the appropriate pcDNA env-expressing vector as previously described (Dragic et al. 1996). […] Cultures were incubated for 72 h at 37° C. in DMEM containing 10% fetal bovine serum, […] puromycin, 0.3 mg/mL geneticin, antibiotics, and 0.5% DMSO. Luciferase activity (relative light units or RLU) was measured using. BrightGlo reagent (Promega, Madison, Wis.) according to the manufacturer's instructions.
Experimental design and data analysis were based on the combination index (CI) method (Chou et al. 1991; Chou et al. 1984). […] The mutually exclusive CI formula was used for combinations of CCR5 inhibitors, while the mutually non-exclusive formula was utilized for combinations of inhibitors to distinct targets (Chou et al. 1991). Each test was conducted 4-12 times. Synergy, additivity and antagonism are indicated by CI<1, CI=1 and CI>1, respectively.

[2] = biological target: T1, CCR5 on CEM.NKR-CCR5 cells (Homo sapiens, UniProt P51681); assay: Competition binding: inhibition of PRO 140-PE binding; details: based on percent cells gated; 5 nM PRO 140-PE
T1 construct: host or cells: CEM.NKR-CCR5 (transduced human T cell leukemia line)
Procedure: Azide was added to block CCR5 internalization during the assay.

[3] = human, in vivo
Procedure: Individuals were treated in sequential, dose-rising cohorts of 5 subjects (4 active and 1 placebo) each and evaluated for up to 120 days post-treatment. […] Safety assessments consisted of monitoring the following: vital signs (blood pressure, pulse, temperature, etc; hematology (hemoglobin, hematocrit, leukocytes, platelets, etc.); serum chemistries (AST/ALT, alkaline phosphatase, BUN, creatinine, etc.); urinalysis (pH, specific gravity, protein, glucose, leukocytes, etc.); and ECGs (12-lead).

CCR5 lymphocytes = type: in vivo, human
Procedure: Whole blood specimens were combined separately with the indicated phycoerythrin-labeled anti-CCR5 antibodies or with appropriate isotype-control antibodies. Erythocytes were lysed and leukocytes were stabilized using the ImmunoPrep Reagent System (Beckman Coulter), and the cells were analyzed on a TQ Prep™ flow cytometry workstation (Beckman Coulter). Data were expressed as the percent of CCR5 cells relative to all cells gated in the analysis.
For up to 60 days post-treatment, at the times indicated in FIG. 6, blood was collected and analyzed for CCR5 lymphocyte levels.
Background binding of isotype control antibodies was unchanged.

[4] = test system: primary R5 HIV-1 isolates JR-FL and Case C 1/85 (CC1/85); assay: In vitro resistance selection and susceptibility testing on PBMC; type: cell-based; details: p24 ELISA
Procedure: For susceptibility testing, viruses were cultured in vitro on stimulated PBMC. In the presence and absence of serially diluted drug, and the extent of viral replication was determined by p24 ELISA.

[5] = test system: HIV-1 (CCR5-tropic virus); type: in vivo; details: for Mean log10 HIV RNA change: Day 10 post-treatment
Description: The efficacy data collected during the study were changes in viral load and CD4 counts over time. The safety data collected during the study were serious adverse events (SAEs)/adverse events (AEs) and changes in laboratory parameters (hematology, chemistry), physical exam, viral tropism and ECGs over time.
All patients were screened prior to the study for the presence of virus that utilizes only CCR5 as the entry coreceptor, i.e., CCR5-tropic virus.
The primary efficacy endpoint was the reduction in plasma HIV RNA level as measured by the Roche Amplicor™ Assay. The primary efficacy endpoint is the maximum change from baseline in viral load, defined as HIV-1 copies/ml, as measured by the Roche Amplicor™ Assay.

HIV-1JR-CSF = assay: hu-PBL-SCID mouse model of HIV-1 infection (FIG. 5); type: in vivo, SCID mice; details: multiple doses after steady state viral levels
Procedure: SCID mice were reconstituted with normal human peripheral blood mononuclear cells and infected 2 weeks later with HIV-1JR-CSF. Multiple doses of PRO 140 were administered following attainment of steady state viral levels. Plasma viral loads pre- and post-injection are indicated.

HIV-1 = details: Olson et al., 1999; Trkola et al., 2001; cited from earlier work
CCR5 = CCR5 (Homo sapiens, UniProt P51681); details: cited from earlier work
[6] = SF162, labelled 1st inhibitor with 2nd inhibitor PRO 140 (equimolar; 1:10 PRO 140 to nevirapine or zidovudine)

Chain of CCR5 (P51681 whole entry): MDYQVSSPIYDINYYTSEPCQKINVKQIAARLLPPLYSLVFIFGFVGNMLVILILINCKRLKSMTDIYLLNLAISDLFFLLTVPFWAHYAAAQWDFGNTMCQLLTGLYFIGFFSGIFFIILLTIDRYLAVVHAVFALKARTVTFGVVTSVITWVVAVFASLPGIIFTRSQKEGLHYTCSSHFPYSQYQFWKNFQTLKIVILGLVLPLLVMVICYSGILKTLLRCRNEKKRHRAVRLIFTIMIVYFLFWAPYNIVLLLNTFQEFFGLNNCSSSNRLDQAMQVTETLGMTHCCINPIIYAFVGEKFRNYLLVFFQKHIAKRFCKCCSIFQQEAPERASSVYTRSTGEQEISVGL
T1 sequence (P51681 whole entry): as above

B1: PRO 140: humanized IgG4,κ anti-CCR5 mAb being developed for HIV-1 therapy (antibody, chains of the INN, looked up, V domains shown)
VH: EVQLVESGGGLVKPGGSLRLSCAASGYTFSNYWIGWVRQAPGKGLEWIGDIYPGGNYIRNNEKFKDKTTLSADTSKNTAYLQMNSLKTEDTAVYYCGSSFGSNYVFAWFTYWGQGTLVTVSS
VL: DIVMTQSPLSLPVTPGEPASISCRSSQRLLSSYGHTYLHWYLQKPGQSPQLLIYEVSNRFSGVPDRFSGSGSGTDFTLKISRVEAEDVGVYYCSQSTHVPLTFGQGTKVEIK
IC50 ([1]; HIV-1 envelope SF162, 1st inhibitor alone, read-out: IC50): 1.3 nM | IC90 ([1]; HIV-1 envelope SF162, 1st inhibitor alone, read-out: IC90): 20 nM | CI50 [1, 6]: 1.0 ± 0.27 | CI90 [1, 6]: 0.86 ± 0.33 | EC90 [2]: 17 nM | dose-limiting toxicity [3]: no dose-limiting toxicity | overall number of CCR5 lymphocytes as measured by CTC5 binding (CCR5 lymphocytes; in vivo, 2 mg/kg): no decrease | time CCR5 lymphocytes effectively coated without cellular depletion (CCR5 lymphocytes; single 2 mg/kg dose): two weeks | time cells remain partially coated (CCR5 lymphocytes; single 2 mg/kg dose): > 4 weeks | time cells remain partially coated (CCR5 lymphocytes; single 5 mg/kg dose): > 60 days | inhibition of SCH-D escape mutants [4]: efficiently inhibited | individual reductions of viral load ([5]; 2.0 mg/kg and 5.0 mg/kg dose levels): up to 2.5 log10 and ≤ 99.7% | AUC viral load ([5]; 5 mg/kg): significantly decreased | Maximum decrease of viral load at any time ([5]; 5 mg/kg): −1.8 log | Patients with <400 copies/mL (anytime) ([5]; 5 mg/kg): 4/10 | Patients with >1 log decrease (anytime) ([5]; 5 mg/kg): 10/10 | time of return of viral load to baseline ([5]; 5.0 mg/kg cohort): approximately 30 days | time to suppression of mean viral load by 1.0 log10 (90%) ([5]; 5.0 mg/kg cohort): within four days | time viral load persisted at or below the 1.0 log10 level of reduction ([5]; 5.0 mg/kg cohort): two to three weeks | mean increase in CD4+ lymphocytes ([5]; 5 mg/kg, day 8): 129 cells/μL | Viral load decrease ([5]; 5 mg/kg, day 22): −0.73 | Mean log10 HIV RNA change ([5]; 0.5 mg/kg): −0.37 log10 | Mean log10 HIV RNA change ([5]; 2.0 mg/kg): −1.04 log10 | Mean log10 HIV RNA change ([5]; 5.0 mg/kg): −1.70 log10 | response rate (percentage of patients with a ≧1 log10 decrease in HIV RNA at any time) ([5]; highest dose cohort): 100% | control of viral replication (plasma viral loads) (HIV-1JR-CSF): prolonged control of viral replication | IC90 (HIV-1): about 4 μg/ml | Block Natural Activity of CCR5 (CCR5; Table 2 summary): No | Development of Resistance In Vitro (CCR5; Table 2 summary): None at 40 weeks | Viral Cross-Resistance (CCR5; Table 2 summary): Limited | tolerability (CCR5): No Toxicity

— US20110135634A1, “METHODS OF INHIBITING INFECTION BY DIVERSE SUBTYPES OF DRUG-RESISTANT HIV-1” (priority 2007, published 2011)
